In IntAct's records for PubMed 21784946:

B1: Cell division protein FtsL (Escherichia coli (strain K12)), P0AEN4 (parent)
chain: MISRVTEALSKVKGSMGSHERHALPGVIGDDLLRFGKLPLCLFICIILTAVTVVTTAHHTRLLTAQREQLVLERDALDIEWRNLILEENALGDHSRVERIATEKLQMQHVDPSQENIVVQK
partner: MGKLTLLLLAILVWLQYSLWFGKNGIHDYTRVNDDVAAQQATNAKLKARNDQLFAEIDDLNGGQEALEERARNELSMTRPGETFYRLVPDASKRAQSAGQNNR
B2: Cell division protein FtsB (Escherichia coli (strain K12)), P0A6S5 (parent)
chain: B1 partner
partner: B1 chain

Variants of: B1
Conditions: with ftsb_ecoli ftsB, P0A6S5

Question: Which “effect of a mutation on the interaction” value does the source give for L63A;L70A;L77A;L84A here?
Answer: decreasing interaction strength

Variants of: B2
Conditions: with ftsl_ecoli ftsL, P0AEN4

Question: With L46A;L53A;L60A;L67A as the variant, how does the “effect of a mutation on the interaction” value read?
Answer: decreasing interaction

Variants of: B2
Conditions: with ftsl_ecoli ftsL

Question: Which “effect of a mutation on the interaction” value does the source give for L46A;L53A;L60A;L67A here?
Answer: decreasing interaction
